# Laboratory results: patent publication US20140072613A1 (published 2014)
# T1: EphA2(h) (human, UniProt P29317 559-976, limits assumed)
# T1 sequence (looked up): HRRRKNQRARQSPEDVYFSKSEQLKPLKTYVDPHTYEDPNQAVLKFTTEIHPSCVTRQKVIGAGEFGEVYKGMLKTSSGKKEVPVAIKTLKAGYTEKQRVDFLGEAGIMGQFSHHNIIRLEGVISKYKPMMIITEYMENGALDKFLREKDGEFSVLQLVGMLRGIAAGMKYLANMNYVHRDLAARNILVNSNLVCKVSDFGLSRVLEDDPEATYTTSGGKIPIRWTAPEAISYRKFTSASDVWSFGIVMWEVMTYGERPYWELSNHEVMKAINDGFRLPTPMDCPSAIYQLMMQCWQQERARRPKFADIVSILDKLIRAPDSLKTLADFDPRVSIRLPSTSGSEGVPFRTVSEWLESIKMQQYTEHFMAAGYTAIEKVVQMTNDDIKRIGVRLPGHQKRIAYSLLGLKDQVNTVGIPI
# T2: PDK1(h) (human, UniProt O15530 1-556, limits assumed)
# T2 sequence (looked up): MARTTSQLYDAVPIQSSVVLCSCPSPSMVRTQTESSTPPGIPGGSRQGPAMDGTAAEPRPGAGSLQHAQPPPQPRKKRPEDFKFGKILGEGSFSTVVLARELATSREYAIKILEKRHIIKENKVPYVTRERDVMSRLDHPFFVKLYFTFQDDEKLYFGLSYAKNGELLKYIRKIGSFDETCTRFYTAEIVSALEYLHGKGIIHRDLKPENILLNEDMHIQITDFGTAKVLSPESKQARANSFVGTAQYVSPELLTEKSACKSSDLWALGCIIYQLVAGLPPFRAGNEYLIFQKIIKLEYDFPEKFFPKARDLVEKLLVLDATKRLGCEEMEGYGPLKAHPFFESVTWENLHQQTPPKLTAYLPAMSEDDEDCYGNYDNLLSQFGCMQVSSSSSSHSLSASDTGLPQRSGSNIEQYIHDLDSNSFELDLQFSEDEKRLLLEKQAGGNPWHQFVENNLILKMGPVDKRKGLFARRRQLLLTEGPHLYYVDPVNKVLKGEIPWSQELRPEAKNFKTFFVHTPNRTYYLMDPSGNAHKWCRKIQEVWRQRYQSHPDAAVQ
# T3: SAPK4(h) (human, UniProt O15264 1-365)
# T3 sequence (looked up): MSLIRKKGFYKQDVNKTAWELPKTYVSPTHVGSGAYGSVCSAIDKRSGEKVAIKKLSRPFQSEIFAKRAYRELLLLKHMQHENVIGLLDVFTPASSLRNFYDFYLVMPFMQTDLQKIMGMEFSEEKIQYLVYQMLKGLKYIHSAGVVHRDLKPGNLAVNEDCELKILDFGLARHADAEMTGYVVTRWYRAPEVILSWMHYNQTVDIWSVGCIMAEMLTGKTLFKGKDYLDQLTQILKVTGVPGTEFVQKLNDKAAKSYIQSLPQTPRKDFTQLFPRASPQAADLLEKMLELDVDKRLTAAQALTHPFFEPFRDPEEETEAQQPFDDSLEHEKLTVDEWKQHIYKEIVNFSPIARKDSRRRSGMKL
# T4: EphB4(h) (human, UniProt P54760 561-987, limits assumed)
# T4 sequence (looked up): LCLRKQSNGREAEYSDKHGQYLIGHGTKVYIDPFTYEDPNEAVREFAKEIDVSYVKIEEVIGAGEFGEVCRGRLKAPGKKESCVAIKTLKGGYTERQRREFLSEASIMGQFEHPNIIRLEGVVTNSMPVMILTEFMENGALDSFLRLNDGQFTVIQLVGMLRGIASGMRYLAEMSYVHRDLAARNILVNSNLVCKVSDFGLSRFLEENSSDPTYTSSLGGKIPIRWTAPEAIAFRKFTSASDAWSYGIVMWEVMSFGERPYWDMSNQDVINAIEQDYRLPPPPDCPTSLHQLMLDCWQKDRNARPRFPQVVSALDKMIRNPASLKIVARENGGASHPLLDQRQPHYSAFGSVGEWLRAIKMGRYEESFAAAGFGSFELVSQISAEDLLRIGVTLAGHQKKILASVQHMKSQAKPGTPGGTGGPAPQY
# Key:
# Assay in all cases: cell-based or functional assay
# Hck(h) = Hck(h) (human, UniProt P08631 251-518, limits assumed)
# MAPKAP-K2(h) = MAPKAP-K2(h) (human, UniProt P49137 46-400)
# Aurora-B(h) = Aurora-B(h) (human, UniProt Q96GD4 1-344)
# IR(h) = IR(h) (human, UniProt P06213 1005-1310, limits assumed)
# CK2(h) = CK2(h) (human)
# EphA2(h) = molecular target: T1, EphA2(h)
# PDK1(h) = molecular target: T2, PDK1(h)
# CHK2(I157T)(h) = CHK2(I157T)(h) (human, UniProt O96017 5-543, limits assumed)
# PKCα(h) = PKCα(h) (human, UniProt P17252 1-672)
# FGFR2(h) = FGFR2(h) (human, UniProt P21802 456-770, limits assumed)
# NEK6(h) = NEK6(h) (human, UniProt Q9HC98 1-313)
# PAK4(h) = PAK4(h) (human, UniProt O96013 1-591, limits assumed)
# SAPK4(h) = molecular target: T3, SAPK4(h)
# Rsk3(h) = Rsk3(h) (human, UniProt Q15349 1-733)
# Rsk1(h) = Rsk1(h) (human, UniProt Q15418 1-735)
# EphB4(h) = molecular target: T4, EphB4(h)
# DAPK2(h) = DAPK2(h) (human, UniProt Q9UIK4 1-370, limits assumed)
# Syk(h) = Syk(h) (human, UniProt P43405 1-635)
# EphA7(h) = EphA7(h) (human, UniProt Q15375 577-998, limits assumed)
# PKGδ(h) = PKGδ(h) (human)
# Chain of NEK6(h) (Q9HC98 whole entry): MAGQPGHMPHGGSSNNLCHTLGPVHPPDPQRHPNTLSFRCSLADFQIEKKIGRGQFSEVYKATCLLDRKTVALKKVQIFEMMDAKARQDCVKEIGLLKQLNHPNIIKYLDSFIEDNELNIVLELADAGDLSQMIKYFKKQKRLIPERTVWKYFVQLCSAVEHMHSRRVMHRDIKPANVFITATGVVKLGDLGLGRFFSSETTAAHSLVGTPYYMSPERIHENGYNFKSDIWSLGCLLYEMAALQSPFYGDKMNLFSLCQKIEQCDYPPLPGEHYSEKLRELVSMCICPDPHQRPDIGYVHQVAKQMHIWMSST
# Chain of DAPK2(h) (Q9UIK4 whole entry): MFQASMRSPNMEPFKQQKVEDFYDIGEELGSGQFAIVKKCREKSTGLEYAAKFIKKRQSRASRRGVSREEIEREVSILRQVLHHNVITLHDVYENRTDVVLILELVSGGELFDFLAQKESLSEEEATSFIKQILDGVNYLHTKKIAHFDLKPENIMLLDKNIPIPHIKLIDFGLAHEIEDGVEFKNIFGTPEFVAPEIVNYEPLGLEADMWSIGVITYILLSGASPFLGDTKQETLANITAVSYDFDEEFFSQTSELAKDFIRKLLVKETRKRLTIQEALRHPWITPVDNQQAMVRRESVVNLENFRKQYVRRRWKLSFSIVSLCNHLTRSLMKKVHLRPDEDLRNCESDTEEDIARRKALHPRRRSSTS
# Chain of CHK2(I157T)(h) (O96017 5-543 I157T limits assumed): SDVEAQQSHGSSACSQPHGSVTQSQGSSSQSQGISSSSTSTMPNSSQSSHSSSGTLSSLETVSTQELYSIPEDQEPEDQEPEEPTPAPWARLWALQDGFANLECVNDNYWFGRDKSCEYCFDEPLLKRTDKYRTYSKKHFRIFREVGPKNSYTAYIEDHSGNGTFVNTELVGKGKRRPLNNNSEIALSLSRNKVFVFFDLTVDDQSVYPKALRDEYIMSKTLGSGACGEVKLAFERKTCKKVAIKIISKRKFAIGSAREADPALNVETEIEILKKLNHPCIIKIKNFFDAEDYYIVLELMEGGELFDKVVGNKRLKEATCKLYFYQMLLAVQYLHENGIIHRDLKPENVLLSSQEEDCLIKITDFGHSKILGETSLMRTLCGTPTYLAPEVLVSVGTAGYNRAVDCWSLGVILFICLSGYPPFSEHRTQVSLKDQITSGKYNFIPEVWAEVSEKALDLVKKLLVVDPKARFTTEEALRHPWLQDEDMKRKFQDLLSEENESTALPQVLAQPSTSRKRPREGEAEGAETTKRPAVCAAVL
# Chain of PAK4(h) (O96013 whole entry): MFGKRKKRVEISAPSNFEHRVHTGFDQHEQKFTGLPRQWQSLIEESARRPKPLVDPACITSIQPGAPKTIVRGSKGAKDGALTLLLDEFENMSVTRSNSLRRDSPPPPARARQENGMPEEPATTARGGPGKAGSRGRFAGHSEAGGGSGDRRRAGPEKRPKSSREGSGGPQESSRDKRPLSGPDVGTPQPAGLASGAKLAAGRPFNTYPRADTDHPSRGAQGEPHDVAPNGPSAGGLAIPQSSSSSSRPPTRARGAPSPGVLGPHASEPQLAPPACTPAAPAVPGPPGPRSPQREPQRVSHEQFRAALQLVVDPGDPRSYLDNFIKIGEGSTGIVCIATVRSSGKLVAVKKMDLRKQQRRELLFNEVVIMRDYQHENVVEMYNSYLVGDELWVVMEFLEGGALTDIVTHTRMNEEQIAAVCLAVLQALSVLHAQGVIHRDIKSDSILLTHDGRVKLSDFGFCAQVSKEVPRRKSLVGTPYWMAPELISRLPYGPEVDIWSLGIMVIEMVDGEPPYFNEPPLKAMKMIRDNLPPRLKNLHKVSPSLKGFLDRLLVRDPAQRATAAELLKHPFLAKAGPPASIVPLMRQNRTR
# Chain of Rsk1(h) (Q15418 whole entry): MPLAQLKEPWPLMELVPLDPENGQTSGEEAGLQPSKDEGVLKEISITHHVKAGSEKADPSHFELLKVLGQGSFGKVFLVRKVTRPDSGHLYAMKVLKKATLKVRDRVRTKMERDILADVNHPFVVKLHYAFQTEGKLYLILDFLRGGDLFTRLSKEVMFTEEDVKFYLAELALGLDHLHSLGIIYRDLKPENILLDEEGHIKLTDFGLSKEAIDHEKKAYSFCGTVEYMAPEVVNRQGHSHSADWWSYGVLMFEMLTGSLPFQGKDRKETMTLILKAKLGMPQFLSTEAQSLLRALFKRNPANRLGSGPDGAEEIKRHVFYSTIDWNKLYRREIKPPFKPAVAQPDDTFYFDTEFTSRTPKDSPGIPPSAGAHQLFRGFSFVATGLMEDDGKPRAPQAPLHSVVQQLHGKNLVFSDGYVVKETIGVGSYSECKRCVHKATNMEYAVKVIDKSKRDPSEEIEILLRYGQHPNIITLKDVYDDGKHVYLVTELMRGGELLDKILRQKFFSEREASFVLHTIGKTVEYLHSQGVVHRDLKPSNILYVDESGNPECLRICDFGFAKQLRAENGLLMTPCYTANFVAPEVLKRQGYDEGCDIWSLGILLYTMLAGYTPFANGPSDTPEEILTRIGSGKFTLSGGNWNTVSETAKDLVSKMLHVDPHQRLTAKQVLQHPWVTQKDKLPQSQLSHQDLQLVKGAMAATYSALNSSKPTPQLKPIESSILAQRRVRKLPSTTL
# Chain of Rsk3(h) (Q15349 whole entry): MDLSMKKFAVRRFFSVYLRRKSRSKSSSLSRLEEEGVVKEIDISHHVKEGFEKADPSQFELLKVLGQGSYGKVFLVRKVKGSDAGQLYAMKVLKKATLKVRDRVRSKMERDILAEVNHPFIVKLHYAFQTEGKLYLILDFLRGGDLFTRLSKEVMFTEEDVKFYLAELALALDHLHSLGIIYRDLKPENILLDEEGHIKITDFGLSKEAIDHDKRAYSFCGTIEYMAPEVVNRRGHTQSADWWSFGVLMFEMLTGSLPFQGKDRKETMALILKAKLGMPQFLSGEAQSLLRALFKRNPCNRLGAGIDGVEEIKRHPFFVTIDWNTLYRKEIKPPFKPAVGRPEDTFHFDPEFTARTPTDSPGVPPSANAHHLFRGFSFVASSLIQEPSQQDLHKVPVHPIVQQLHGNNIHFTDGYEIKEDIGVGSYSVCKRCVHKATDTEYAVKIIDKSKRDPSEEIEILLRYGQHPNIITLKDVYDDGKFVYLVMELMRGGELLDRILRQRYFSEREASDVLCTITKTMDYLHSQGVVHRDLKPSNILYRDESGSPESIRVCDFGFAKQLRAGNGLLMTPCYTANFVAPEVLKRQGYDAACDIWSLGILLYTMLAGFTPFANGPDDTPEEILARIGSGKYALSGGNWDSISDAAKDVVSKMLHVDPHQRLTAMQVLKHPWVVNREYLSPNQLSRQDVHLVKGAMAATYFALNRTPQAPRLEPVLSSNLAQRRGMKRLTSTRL
# Chain of Aurora-B(h) (Q96GD4 whole entry): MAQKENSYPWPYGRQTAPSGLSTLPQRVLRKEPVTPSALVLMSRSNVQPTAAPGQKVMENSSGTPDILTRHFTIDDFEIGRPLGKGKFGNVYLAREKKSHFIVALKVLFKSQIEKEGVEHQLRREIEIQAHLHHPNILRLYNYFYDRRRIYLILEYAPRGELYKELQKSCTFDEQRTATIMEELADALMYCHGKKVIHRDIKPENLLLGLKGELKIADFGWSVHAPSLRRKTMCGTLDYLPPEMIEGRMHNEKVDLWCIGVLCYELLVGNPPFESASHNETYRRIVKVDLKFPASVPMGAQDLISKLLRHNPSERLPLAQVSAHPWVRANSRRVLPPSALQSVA
# Chain of FGFR2(h) (P21802 456-770 limits assumed): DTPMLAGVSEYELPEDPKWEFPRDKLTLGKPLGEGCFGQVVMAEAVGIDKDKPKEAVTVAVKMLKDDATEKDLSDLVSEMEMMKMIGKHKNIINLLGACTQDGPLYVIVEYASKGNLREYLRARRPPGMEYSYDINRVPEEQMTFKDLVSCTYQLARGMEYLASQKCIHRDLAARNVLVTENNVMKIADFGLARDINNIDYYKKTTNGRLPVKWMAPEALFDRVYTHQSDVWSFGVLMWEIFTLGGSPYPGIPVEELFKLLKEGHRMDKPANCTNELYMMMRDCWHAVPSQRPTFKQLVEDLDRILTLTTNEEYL
# Chain of MAPKAP-K2(h) (P49137 46-400 limits assumed): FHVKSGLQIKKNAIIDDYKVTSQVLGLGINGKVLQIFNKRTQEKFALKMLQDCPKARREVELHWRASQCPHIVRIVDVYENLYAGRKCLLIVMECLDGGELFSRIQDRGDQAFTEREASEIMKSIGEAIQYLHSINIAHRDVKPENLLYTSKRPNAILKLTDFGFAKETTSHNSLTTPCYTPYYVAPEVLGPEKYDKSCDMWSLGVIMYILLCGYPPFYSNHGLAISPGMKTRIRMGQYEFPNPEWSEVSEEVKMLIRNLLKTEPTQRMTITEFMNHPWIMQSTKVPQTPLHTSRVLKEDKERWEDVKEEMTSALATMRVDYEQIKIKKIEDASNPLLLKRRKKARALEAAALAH
# Chain of IR(h) (P06213 1005-1310 limits assumed): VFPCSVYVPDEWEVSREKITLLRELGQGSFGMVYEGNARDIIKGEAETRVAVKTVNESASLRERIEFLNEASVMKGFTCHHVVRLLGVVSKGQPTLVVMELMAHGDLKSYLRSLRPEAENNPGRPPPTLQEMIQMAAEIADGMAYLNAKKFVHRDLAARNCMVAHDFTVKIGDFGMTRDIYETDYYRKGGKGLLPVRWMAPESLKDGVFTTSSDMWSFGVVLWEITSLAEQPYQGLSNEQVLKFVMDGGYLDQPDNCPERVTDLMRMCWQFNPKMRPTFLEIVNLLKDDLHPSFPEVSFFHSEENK
# Chain of Hck(h) (P08631 251-518 limits assumed): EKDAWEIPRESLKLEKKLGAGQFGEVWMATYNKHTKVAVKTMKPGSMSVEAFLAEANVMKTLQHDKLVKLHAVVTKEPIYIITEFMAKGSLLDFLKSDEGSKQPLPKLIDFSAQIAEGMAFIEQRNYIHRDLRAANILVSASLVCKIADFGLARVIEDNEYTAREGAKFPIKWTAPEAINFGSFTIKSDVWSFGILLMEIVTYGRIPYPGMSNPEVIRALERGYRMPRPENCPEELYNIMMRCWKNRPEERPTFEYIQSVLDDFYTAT
Binder,"% activity, 100 µM (Hck(h)) [%]","% activity, 100 µM (MAPKAP-K2(h)) [%]","% activity, 100 µM (Aurora-B(h)) [%]","% activity, 100 µM (IR(h)) [%]","% activity, 100 µM (CK2(h)) [%]","% activity, 100 µM (EphA2(h)) [%]","% activity, 100 µM (PDK1(h)) [%]","% activity, 100 µM (CHK2(I157T)(h)) [%]","% activity, 100 µM (PKCα(h)) [%]","% activity, 100 µM (FGFR2(h)) [%]","% activity, 100 µM (NEK6(h)) [%]","% activity, 100 µM (PAK4(h)) [%]","% activity, 100 µM (SAPK4(h)) [%]","% activity, 100 µM (Rsk3(h)) [%]","% activity, 100 µM (Rsk1(h)) [%]","% activity, 100 µM (EphB4(h)) [%]","% activity, 100 µM (DAPK2(h)) [%]","% activity, 100 µM (Syk(h)) [%]","% activity, 100 µM (EphA7(h)) [%]","% activity, 100 µM (PKGδ(h)) [%]"
KAFAKLAARLYRKALARQLGVAA [MMI-0400],72,5,150,85,101,17,159,41,86,18,85,89,91,71,54,28,16,9,222,90
FAKLAARLYRKALARQLGVAA [MMI-0300],72,5,128,96,90,31,135,43,89,14,82,94,96,76,46,44,32,24,159,101
